These results are taken from patent publication EP4034238B1 (Centro Nacional de Investigaciones Cardiovasculares Carlos …, dated 2025).

Assay [1] has as its target T1, Aldehyde Dehydrogenase 4 Family Member A1 (ALDH4A1), endogenous mouse protein from aorta lysate (mouse, UniProt Q8CHT0 24-562).
T1 construct: Native protein precipitated from mouse aorta lysates; also called ALDH4A1 mitochondrial protein
T1 sequence (looked up): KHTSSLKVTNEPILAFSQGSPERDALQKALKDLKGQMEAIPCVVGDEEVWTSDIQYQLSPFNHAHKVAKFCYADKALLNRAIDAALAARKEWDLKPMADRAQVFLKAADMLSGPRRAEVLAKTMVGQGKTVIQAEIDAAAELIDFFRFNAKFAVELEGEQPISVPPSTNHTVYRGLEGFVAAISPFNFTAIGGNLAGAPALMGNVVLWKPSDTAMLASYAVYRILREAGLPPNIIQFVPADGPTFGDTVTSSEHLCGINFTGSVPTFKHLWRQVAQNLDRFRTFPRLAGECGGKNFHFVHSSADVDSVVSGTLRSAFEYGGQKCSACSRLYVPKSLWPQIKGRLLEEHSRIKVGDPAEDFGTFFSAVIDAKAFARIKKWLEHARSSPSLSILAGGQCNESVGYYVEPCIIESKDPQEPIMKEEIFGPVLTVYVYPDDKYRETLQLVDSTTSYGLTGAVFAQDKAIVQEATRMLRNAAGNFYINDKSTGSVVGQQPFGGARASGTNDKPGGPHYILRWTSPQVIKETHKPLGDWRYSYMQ
Description: deep proteomics analysis (IP + mass spectrometry).

Assay [2] concerns the target T2, ALDH4A1-FLAG protein (mouse ALDH4A1, C-Flag tag) (mouse, UniProt Q8CHT0 24-562, limits assumed).
T2 construct: Purified on anti-FLAG M2 gel and coated at 5 ug/ml in the ELISAs; used as lysate of transfected HEK293T cells in the IP; also called murine ALDH4A1-FLAG; not shown: C-terminal FLAG tag
T2 sequence (looked up): T1 sequence (looked up)
Description: ELISA screen for ALDH4A1 reactivity (mark in Table 1). For orientation: In an ELISA, binding on a coated surface is turned into a signal by an enzyme label.

B1: A12 antibody (antibody, human IgG1, V domains shown)
VH: EVQLVESGGDLVKPGGSLKLSCAASGFTFSSYGMSWVRQTPDKRLEWVATISSGGSYTYYPDSVKGRFTISRDNAKNTLYLQMSSLKSEDTAMYYCARPHVVTTPGWYFDVWGTGTTVTVSS
VL: DIVMTQSPATLSVTPGDRVSLSCRASQSISDYLHWYQQKSHESPRLLIKYASQSISGIPSRFSGSGSGSDFTLSINSVEPEDVGVYYCQNGHSFPLTFGAGTKLELK
notes: also called huA12-IgG1
Take B1: the binding result in assay [1] and in assay [2] was “binds” throughout.
